Experimental data from patent publication US20250289897A1 (Eli Lilly, published 2025).

T1: human FcγRIIb (CD32b) extracellular domain (human, UniProt P31994 43-217)
T1 construct: extracellular domain
T1 sequence (looked up): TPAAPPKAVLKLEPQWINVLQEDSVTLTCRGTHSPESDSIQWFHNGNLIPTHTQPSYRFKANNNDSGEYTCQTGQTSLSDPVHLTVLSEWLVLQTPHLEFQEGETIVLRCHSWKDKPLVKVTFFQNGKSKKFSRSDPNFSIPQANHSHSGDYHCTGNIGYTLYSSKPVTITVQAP


Tests used:
[1] = target: T2, Recombinant LEPR extracellular domain fused to hIgG1-Fc (human LEPR ECD-TEV-Fc) (human); experiment: ELISA, plate coated with human LEPR ECD (SEQ ID NO:30) at 2 ug/mL, antibody titrated 1:3 from 50 ug/mL, goat anti-human kappa AP detection, OD560
T2 construct: The entry holds ECD, TEV site, human IgG1 Fc and a His tag in one chain; also called LEPR-Fc; hLEPR-TEV-hIgG1Fc
T2 sequence (chain, as listed by the source limits assumed): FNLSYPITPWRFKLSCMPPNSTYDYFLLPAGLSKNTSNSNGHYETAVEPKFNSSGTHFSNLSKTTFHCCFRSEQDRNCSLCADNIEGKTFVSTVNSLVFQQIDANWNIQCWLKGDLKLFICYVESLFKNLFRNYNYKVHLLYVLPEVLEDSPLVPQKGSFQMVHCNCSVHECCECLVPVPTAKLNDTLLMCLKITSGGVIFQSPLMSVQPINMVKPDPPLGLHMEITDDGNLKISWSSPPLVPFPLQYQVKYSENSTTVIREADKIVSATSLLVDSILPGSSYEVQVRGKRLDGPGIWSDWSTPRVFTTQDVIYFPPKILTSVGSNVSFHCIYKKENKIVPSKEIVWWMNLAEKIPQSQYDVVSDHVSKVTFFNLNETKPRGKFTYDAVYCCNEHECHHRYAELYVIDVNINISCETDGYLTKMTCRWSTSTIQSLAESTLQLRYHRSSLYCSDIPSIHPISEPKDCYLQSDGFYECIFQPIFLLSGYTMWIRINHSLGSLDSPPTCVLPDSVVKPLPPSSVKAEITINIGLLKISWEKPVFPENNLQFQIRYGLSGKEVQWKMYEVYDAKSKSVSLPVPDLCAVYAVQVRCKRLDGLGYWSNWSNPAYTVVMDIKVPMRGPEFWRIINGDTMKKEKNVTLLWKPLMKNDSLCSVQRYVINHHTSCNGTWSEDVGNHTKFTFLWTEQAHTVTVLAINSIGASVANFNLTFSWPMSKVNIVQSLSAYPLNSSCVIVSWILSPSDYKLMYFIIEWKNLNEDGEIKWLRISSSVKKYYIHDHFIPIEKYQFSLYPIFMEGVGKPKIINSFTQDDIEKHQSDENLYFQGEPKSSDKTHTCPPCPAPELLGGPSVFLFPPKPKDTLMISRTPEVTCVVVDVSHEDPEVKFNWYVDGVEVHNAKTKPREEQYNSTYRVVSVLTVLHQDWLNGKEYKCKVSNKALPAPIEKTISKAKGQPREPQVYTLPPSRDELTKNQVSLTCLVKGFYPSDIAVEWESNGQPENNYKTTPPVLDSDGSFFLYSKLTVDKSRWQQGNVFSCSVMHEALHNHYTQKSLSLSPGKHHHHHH
Method: The plate was then washed. Antibodies were titrated, starting at 50 μg/mL in Casein with 1:3 serial dilutions across the plate. Plate was incubated at RT for 1 hr. The plate is then washed.
The mixture was incubated at RT for 1 hr. The plate is then washed.
The curves indicate relative binding of IgG antibodies to human LEPR. The LEPR is bound to an ELISA plate and the antibodies are titrated in 3-fold increments starting at 50 μg/mL.

[2] = target: T3, neonatal Fc receptor (FcRn) on FcRn Affinity Column Gen2 (Roche, Cat #09430857001) (UniProt P55899 24-297; P61769 21-119, limits assumed); experiment: FcRn-HPLC (Roche FcRn Affinity Column Gen2), peak width at 50% peak height
Method: (§1) Stock antibody solutions were diluted to 1 mg/mL into 20 mM MES, 140 mM NaCl, pH5.5. […] 20 μμL antibody injections were made followed by 10 minute column wash with 20 mM MES, 140 mM NaCl, pH5.5. Antibodies were then eluted by pH gradient elution into 20 mM Tris, 140 mM NaCl, pH8.8 over 90 minutes. Chromatograms were blank-subtracted to remove baseline drift.

[3] = target: T3, neonatal Fc receptor (FcRn) on FcRn …; experiment: FcRn-HPLC (Roche FcRn Affinity Column Gen2), pH gradient 5.5 to 8.8 over 90 minutes
Method: as §1

[4] = target: T4, human FcγRI (CD64) extracellular domain (human, UniProt P12314 16-292); experiment: SPR at 25 C (Biacore T200), antibody captured on Protein A chip, FcγR ECD as analyte; average of 3, SD 0.4
T4 construct: extracellular domain; also called FcγRI ECD
T4 sequence (P12314 16-292): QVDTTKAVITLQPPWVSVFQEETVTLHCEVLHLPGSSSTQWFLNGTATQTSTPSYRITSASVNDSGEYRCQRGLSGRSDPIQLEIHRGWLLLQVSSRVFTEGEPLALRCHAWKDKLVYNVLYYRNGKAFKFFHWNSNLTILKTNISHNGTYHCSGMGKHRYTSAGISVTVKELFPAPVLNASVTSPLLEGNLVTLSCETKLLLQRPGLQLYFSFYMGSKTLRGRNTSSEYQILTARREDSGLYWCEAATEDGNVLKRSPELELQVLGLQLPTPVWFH
Method: (§2) Briefly, the surfaces of all 4 flow cells were activated by injecting a 1:1 mixture of EDC/NHS for 7 minutes at 10 μL/minute. […] Un-reacted sites were blocked with a 7-minute injection of ethanolamine at 10 μL/minute. Injections of 2×10 μL of glycine pH 1.5 were used to remove any noncovalently associated protein.
For FcγRI binding, antibodies were diluted to 2.5 g/mL in running buffer (1x HBS-EP+, Teknova P/N H8022), and approximately 150 RU of each antibody was captured in flow cells 2 through 4 (RUcaptured). FC1 was the reference flow cell, therefore, no antibody was captured in FC1. […] Duplicate injections of each concentration were injected over all FCs at 40 μL/minute for 120 seconds followed by a 1200 second dissociation phase. Regeneration was performed by injecting 15 μL of 10 mM glycine pH 1.5 at 30 μL/minute over all FCs. Reference-subtracted data was collected as FC2-FC1, FC3-FC1, and FC4-FC1. The measurements were obtained at 25° C. The affinity (KD) was calculated using either steady state equilibrium analysis with the Scrubber 2 Biacore® Evaluation Software or a “1:1 (Langmuir) binding” model in BIA Evaluation.

[5] = target: T5, Human C1q (MS Biomedical) (human, UniProt P02745 23-245; P02746 28-253; P02747 29-245); experiment: C1q ELISA, plate coated with the antibody at 0.19-10 ug/mL, human C1q added at 10 ug/mL, sheep anti-human C1q-HRP detection, OD450
T5 construct: the three subunits are from general knowledge; also called complement component C1q; Clq
T5 sequence (P02745 23-245 limits assumed, chain 1 of 3): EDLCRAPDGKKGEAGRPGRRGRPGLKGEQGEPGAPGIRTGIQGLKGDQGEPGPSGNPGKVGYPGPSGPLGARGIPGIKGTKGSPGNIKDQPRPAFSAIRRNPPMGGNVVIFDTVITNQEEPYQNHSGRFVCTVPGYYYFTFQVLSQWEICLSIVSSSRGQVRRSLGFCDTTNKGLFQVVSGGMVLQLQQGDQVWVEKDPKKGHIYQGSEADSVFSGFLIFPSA
T5 sequence (P02746 28-253 limits assumed, chain 2 of 3): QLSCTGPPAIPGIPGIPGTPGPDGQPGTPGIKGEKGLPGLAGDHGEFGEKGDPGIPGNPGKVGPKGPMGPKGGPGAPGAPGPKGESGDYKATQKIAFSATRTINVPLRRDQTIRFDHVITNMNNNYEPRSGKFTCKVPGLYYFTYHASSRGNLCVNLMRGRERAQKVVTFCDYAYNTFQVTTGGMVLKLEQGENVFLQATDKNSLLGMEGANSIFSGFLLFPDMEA
T5 sequence (P02747 29-245 limits assumed, chain 3 of 3): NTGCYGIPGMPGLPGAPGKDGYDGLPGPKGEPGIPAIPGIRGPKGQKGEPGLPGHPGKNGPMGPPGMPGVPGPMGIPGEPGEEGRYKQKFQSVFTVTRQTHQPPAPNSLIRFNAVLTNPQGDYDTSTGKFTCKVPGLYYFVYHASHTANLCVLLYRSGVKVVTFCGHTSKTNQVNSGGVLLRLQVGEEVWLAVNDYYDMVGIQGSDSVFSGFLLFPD
Method: Testing was performed in duplicate wells. The plate was sealed and incubated overnight at 4° C. The coating reagent was removed from each well and 200 μL/well of casein blocking reagent (Thermo) was added. The plate was sealed and incubated for 2 hours at room temperature (RT). Each well was washed 3 times with wash buffer (1xTBE with 0.05% Tween 20). One hundred microliters per well of Human Clq (MS Biomedical) at 10 μg/mL diluted in casein blocking reagent was added and incubated for 3 hours at RT. The plate was then washed three times with wash buffer before 100 L/well of a 1:800 dilution of Sheep anti-human C1q-HRP (Abcam #ab46191) in casein blocker was added and incubated for 1 hour at RT. The plate was washed 6 times with wash buffer, and 100 μL/well of TMB Substrate (Pierce) was added to each well and incubated for 7 minutes. One hundred microliters of 1 N HCl was added to each well to stop the reaction.

[6] = target: T6, human FcγRIIIA_158F (CD16a) extracellular domain (human, UniProt P08637 17-208); experiment: SPR at 25 C (Biacore T200), antibody captured on Protein A chip, FcγR ECD as analyte, steady state; average of 3, SD 0.03
T6 construct: extracellular domain
T6 sequence (P08637 17-208): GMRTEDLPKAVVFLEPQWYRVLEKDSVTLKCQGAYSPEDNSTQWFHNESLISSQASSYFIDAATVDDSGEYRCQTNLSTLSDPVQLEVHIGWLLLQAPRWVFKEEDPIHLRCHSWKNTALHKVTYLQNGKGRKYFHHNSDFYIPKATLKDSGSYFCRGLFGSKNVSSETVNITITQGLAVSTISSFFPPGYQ
Method: as §2
(§3) For FcγRIIa, FcγRIIb, and FcγRIIIa binding, antibodies were diluted to 5 μg/mL in running buffer, and approximately 500 RU is captured in flow cells 2 through 4 (RUcaptured). FC1 is the reference flow cell. […] Duplicate injections of each concentration were injected over all FCs at 40 L/minute for 60 seconds followed by a 120 second dissociation phase. Regeneration was performed by injecting 15μL of 10 mM glycine pH 1.5 at 30 μL/minute over all FCs.
(§4) Reference-subtracted data was collected as FC2-FC1, FC3-FC1, and FC4-FC1. The measurements were obtained at 25° C. The affinity (KD) was calculated using the steady state equilibrium analysis with the Scrubber 2 Biacore® Evaluation Software.

[7] = target: T1, human FcγRIIb (CD32b) extracellular …; experiment: SPR at 25 C (Biacore T200), antibody captured on Protein A chip, FcγR ECD as analyte, steady state; average of 3, SD 0.17
Method: as §2, §3, §4

EC50 (read off the curve) [1] [mg/L]	Peak Width [2] [min]	Retention Time [3] [min]	Kd [4] [nM]	EC50 (read off the curve) [5] [mg/L]	Kd [6] [nM]	Kd [7] [nM]	Binder
~0.07	–	–	–	–	–	–	Antibody D (antibody, human IgG1, kappa, L234A L235A, V domains shown, Same HC as Antibody A) VH: EVQLLESGGGLVQPGGSLRLSCAASGFTFSSFAMSWVRQAPGKGLEWVSAISGSGGSTYSADSVRGRFTISRDNSKNTLYLQMNSLRAEDTAVYYCAKDQGDWDFLFDYWGQGTLVTVSS VL: DIQMTQSPSFLSASVGDRVTITCRASQGISSSLAWYQQKPGKAPKLLIYTASTLQSGVPSRFSGSGSGTEFTLTISSLQPEDFATYYCQQLNYYPFTFGQGTKVEIKR
–	1.7	69.5	0.0676	~1	1560	3610	Antibody A-IgG1 (antibody, there they lie 3 residues further on); also called Antibody A-IgG1 control; Antibody-A with non-modified IgG1) heavy: not shown light: DIQMTQSPSFLSASVGDRVTITCRASQGISSSLAWYQQKPGKAPKLLIYTASTLQSGVPSRFSGSGSGTEFTLTISSLQPEDFATYYCQQLIYYPFTFGQGTKVEIKRTVAAPSVFIFPPSDEQLKSGTASVVCLLNNFYPREAKVQWKVDNALQSGNSQESVTEQDSKDSTYSLSSTLTLSKADYEKHKVYACEVTHQGLSSPVTKSFNRGEC

The next lines start with the binder.

Binder	EC50 (read off the curve) [1] [mg/L]	Peak Width [2] [min]	Retention Time [3] [min]	Kd [4] [nM]	EC50 (read off the curve) [5] [mg/L]	Kd [6] [nM]	Kd [7] [nM]
Antibody A IgG4PAA-YTE (antibody, VH and VL matched to Antibody A; Positions are Fc numbering as printed (EU index implied)) heavy: EVQLLESGGGLVQPGGSLRLSCAASGFTFSSFAMSWVRQAPGKGLEWVSAISGSGGSTYSADSVRGRFTISRDNSKNTLYLQMNSLRAEDTAVYYCAKDQGDWDFLFDYWGQGTLVTVSSASTKGPSVFPLAPCSRSTSESTAALGCLVKDYFPEPVTVSWNSGALTSGVHTFPAVLQSSGLYSLSSVVTVPSSSLGTKTYTCNVDHKPSNTKVDKRVESKYGPPCPPCPAPEAAGGPSVFLFPPKPKDTLYITREPEVTCVVVDVSQEDPEVQFNWYVDGVEVHNAKTKPREEQFNSTYRVVSVLTVLHQDWLNGKEYKCKVSNKGLPSSIEKTISKAKGQPREPQVYTLPPSQEEMTKNQVSLTCLVKGFYPSDIAVEWESNGQPENNYKTTPPVLDSDGSFFLYSRLTVDKSRWQEGNVFSCSVMHEALHNHYTQKSLSLSLGK light: DIQMTQSPSFLSASVGDRVTITCRASQGISSSLAWYQQKPGKAPKLLIYTASTLQSGVPSRFSGSGSGTEFTLTISSLQPEDFATYYCQQLIYYPFTFGQGTKVEIKRTVAAPSVFIFPPSDEQLKSGTASVVCLLNNFYPREAKVQWKVDNALQSGNSQESVTEQDSKDSTYSLSSTLTLSKADYEKHKVYACEVTHQGLSSPVTKSFNRGEC	–	2.7	79.6	–	–	–	–
Antibody A IgG1-YTE (antibody) heavy: EVQLLESGGGLVQPGGSLRLSCAASGFTFSSFAMSWVRQAPGKGLEWVSAISGSGGSTYSADSVRGRFTISRDNSKNTLYLQMNSLRAEDTAVYYCAKDQGDWDFLFDYWGQGTLVTVSSASTKGPSVFPLAPSSKSTSGGTAALGCLVKDYFPEPVTVSWNSGALTSGVHTFPAVLQSSGLYSLSSVVTVPSSSLGTQTYICNVNHKPSNTKVDKRVEPKSCDKTHTCPPCPAPELLGGPSVFLFPPKPKDTLYITREPEVTCVVVDVSHEDPEVKFNWYVDGVEVHNAKTKPREEQYNSTYRVVSVLTVLHQDWLNGKEYKCKVSNKALPAPIEKTISKAKGQPREPQVYTLPPSREEMTKNQVSLTCLVKGFYPSDIAVEWESNGQPENNYKTTPPVLDSDGSFFLYSKLTVDKSRWQQGNVFSCSVMHEALHNHYTQKSLSLSPGK light: DIQMTQSPSFLSASVGDRVTITCRASQGISSSLAWYQQKPGKAPKLLIYTASTLQSGVPSRFSGSGSGTEFTLTISSLQPEDFATYYCQQLIYYPFTFGQGTKVEIKRTVAAPSVFIFPPSDEQLKSGTASVVCLLNNFYPREAKVQWKVDNALQSGNSQESVTEQDSKDSTYSLSSTLTLSKADYEKHKVYACEVTHQGLSSPVTKSFNRGEC	–	2.8	80.3	–	–	–	–
